Patent US20090291088A1, “THERAPEUTIC COMBINATIONS OF ANTI-IGF-1R ANTIBODIES AND OTHER COMPOUNDS” (Biogen Idec MA Inc., priority 2008, published 2009)

What was measured:
[1] = biological target: T1, human IGF-1R(1-902)-His10 (Homo sapiens, UniProt P08069); assay: SPR, receptor ectodomain injected over immobilized antibodies: hIGF-1R-His10; format: binding; details: full-length fully human antibodies; even at the lowest concentration
T1 construct: human IGF-1R(1-902)-His10 (hIGF-1R-His10 (R&D systems)); purchased R&D systems 305-GR-050
Method: SPR analyses were performed using a Biacore3000. The instrument was set to 25° C. and assays performed with running buffer HBS-EP pH 7.2 purchased from Biacore (Biacore, Cat. No. BR-1001-88). The fully human antibodies, M13-C06, M14-C03, and M14-G11 were immobilized to ˜10,000 RU on Biacore CM5 Research Grade Sensor Chip surfaces using the standard NHS/EDC-amine reactive chemistry according to protocols supplied by Biacore. For immobilization, the antibodies were diluted to 40 μg/mL in a 10 mM Acetate pH 4.0 buffer. To investigate the relative kinetics of association and dissociation of the full-length ectodomains of human IGF-1R(1-902)-His10 (hIGF-1R-His10 (R&D systems)) and human INSR(28-956)-His10 (INSR (R&D systems)) to each of the human antibodies, increasing concentrations of hIGF-1R-His10 or INSR were injected over the sensorchip surfaces. The hIGF-1R-His10 concentration series ranged from 1.0 nM to 250 nM while the INSR concentrations ranged from 1.0 nM to 2 μM. All antibody surfaces were reliably regenerated with 100 mM Glycine, pH 2.0. […] Flow rates were 20 μl/min. (“His10” denotes a 10-residue histidine tag on the C-terminus of the constructs.)

[2] = biological target: T2, recombinant human IGF-1R ectodomain (Homo sapiens, UniProt P08069); assay: ELISA binding of Fabs and murine MAbs to recombinant soluble IGF-1R (IGF-1R-His, IGF-1R-Fc); details: murine monoclonal antibodies; read-out: Binding (EC50nM) Protein ELISA
T2 construct: denoted hIGF-1R(1-902)-His10, was purchased from R&D systems (Cat. No. 305-GR-050); His or Fc (two alternative proteins, not both on one chain); purchased R & D Systems 305-GR
Method: Recombinant human IGF-1R ectodomain was used to screen a human naïve phagemid Fab library containing 3.5×10^10 unique clones (Hoet, R. M., et al. Nat. Biotechnol. 23(3):344-8 (2005), (“Hoet et al.”) which is incorporated herein by reference in its entirety). Two distinct panning arms were followed using biotinylated IGF1R-his and IGF1R-Fc protein. Proteins were captured on steptavidin-coated magnetic beads prior to incubation with the phage library. In the case of IGF1R-Fc, a biotinylated anti-Fc antibody was captured on the magnetic beads, followed by captured of the Fc fusion protein. […] Sequence analysis of all clones determined 12 clones were isolated in both arms of the panning strategy. […]
ELISA assays were performed to determine specific binding of the Fab fragment antibodies to soluble IGF-1R over the insulin receptor. […] Bound antibody was detected with HRPO labeled goat α-human kappa (Southern Biotechnology Associates, #2060-05) for Fabs and goat α-mouse IgG Fcγ (Jackson Immunoresearch, # 115-035-164) for murine MAbs. Color development was stopped by addition of 4NH2SO4 and optical density is measured at 450 nm using a Molecular Devices plate reader and binding curves are generated.

[3] = system: Panc-1; assay: IGF driven tumor cell growth, CELL TITER-GLO, Panc-1; format: cell-based, human; details: pancreatic cancer cell
Method: NCI-H23, Calu-6, Colo-205, Panc-1, BxPC-3 (ATCC) tumor lines were purchased from ATCC. Cell lines were grown in complete growth medium containing RPMI-1640 (ATCC), 10% fetal bovine serum (Irvine Scientific Inc.) and 50 μg/ml of Gentamycin (Gibco, Invitrogen). Trypsin-EDTA solution (Sigma) was used for removal of adherent cells from culture vessels. Phosphate buffered saline, pH 7.2, was from MediaTech Inc The 96-well clear bottom plates for luminescent assay was purchased from Wallac Inc.
Cells grown to 80% monolayers were, trypsinized, washed, resuspended and plated into 96-well plates in 200 μl of 2% growth medium at 8×10^3 cells/well for NCI-H23 and Colo-205 cells; and 5×10^3 cells/well for Calu-6, Panc-1 and BxPC-3 cells. After 24 hours, the culture medium was replaced with 100 μl of serum free medium (SFM), and 50 μl of serially diluted antibodies at 4× concentration was added. […] All treatments were done in triplicates. Cell growth was measured using the CELL TITER-GLO™ Luminescent Cell Viability Assay (Promega, Madison, Wis.). The 1:1 mixture of reagent and SFM was added at 200 μl/well. Luminescence was detected on Wallac (Boston, Mass.) plate reader.
The ability of the selected murine antibodies to inhibit IGF/IGF-1R dependent in vitro growth of several human tumor lines (Lung, H-23, Calu-6; Pancreas, BxPc-3, Panc-1, MiaPaCa and Colon Colo205) was measured by a proliferation assay described in Example 13.

binding of hIGF-1R-His10 to immobilized antibody surface [1]	EC50 [2]	Molecule	Proliferation of Tumor Cells Panc-1 [3]
demonstrated binding	–	M14-C03: anti-IGF-1R antibody, allosteric blocker of IGF-1 and IGF-2 (antibody, V domains shown, Antibody variable heavy chain sequence; Antibody variable light chain sequence) VH: EVQLLESGGGLVQPGGSLRLSCAASGFTFSKYMMSWVRQAPGKGLEWVSYISPSGGLTWYADSVKGRFTISRDNSKNTLYLQMNSLRAEDTAVYYCARDGARGYGMDVWGQGTTVTVSS VL: DIQMTQSPATLSLSPGERATLSCRASQSVSSYLAWYQQKPGQAPRLLIYDASNRATGIPARFSGSGSGTDFTLTISSLEPEDFAVYYCQQRSNWPPEVTFGPGTKVDIK	–
–	0.085 nM	20C8.3B8: murine anti-human IGF-1R monoclonal antibody from hybridoma; VH SEQ ID NO:43, VL SEQ ID NO:103 (antibody, V domains shown, Antibody variable heavy chain sequence; Antibody variable light chain sequence) VH: DVQLQESGPDLVKPSQSLSLTCTVTGYSITSGYSWHWIRQFPGNKLEWMGYIHYSGGTNYNPSLKSRISITRDTSKNQFFLQLNSVTTEDTATYYCARSGYGYRSAYYFDYWGQGTTVTVSS VL: DIVLTQSPASLAVSLGQRATISCRASKSVSTSAYSYMHWYQQKPGQPPKLLIYLASNLESGVPARFSGSGSGTDFTLNIHPVEEEDAATYYCQHSRELPYTFGGGTKLEIK	+++ (>30%@0.1 μg/ml)
–	0.042 nM	20D8.24B11: murine anti-human IGF-1R monoclonal antibody from hybridoma; VH SEQ ID NO:53, VL SEQ ID NO:103 (antibody, V domains shown, Antibody variable heavy chain sequence; Antibody variable light chain sequence) VH: DVQLQESGPDLVKPSQSLSLTCTVTGYSITSGYSWHWIRQFPGNKLEWMGYIHYSGGTNYNPSLKSRISITRDTSKNQFFLQLNSVTTEDTATYYCARSGYGYRSAYYFDYWGQGTTLTVSS VL: DIVLTQSPASLAVSLGQRATISCRASKSVSTSAYSYMHWYQQKPGQPPKLLIYLASNLESGVPARFSGSGSGTDFTLNIHPVEEEDAATYYCQHSRELPYTFGGGTKLEIK	+++ (>30%@0.1 μg/ml)
